Experimental data published in publication doi:10.1101/2025.02.27.640520.

Molecular target: DeCLIC (Desulfofustis deltaproteobacterium)
Test: cryo-EM structure

stoichiometry N: 5
Substance: DeCLIC (natural protein)
